Assay results reported in patent US20210213134A1, “THIOL-BASED MULTIVALENT DRUG DELIVERY COMPOSITIONS” (ORPRO THERAPEUTICS, INC., priority 2018, published 2021).
“Also recorded” adds a separate entry of the source.

Assays:
[1] = DTNB assay (percent reduction state, free sulfhydryl); assay type: physicochemical; settings: Table 1
Method: C35STRX-antibiotic conjugates are dissolved in PBS to the original volume before lyophilization and assayed for stability over seven days in comparison to non-conjugated reduced C35STRX. C35STRX-antibiotic conjugate concentration is measured by BCA protein assay (Pierce). […] Degradation/aggregation of C35STRX-antibiotic conjugates is determined by the percentage of C35STRX-antibiotic conjugate monomers assayed by SEC using an Agilent 1100 HPLC system and a BioBasic SEC-300 250×4.6 column (ThermoScientific) with a 40 mM Na acetate, 450 mM Na chloride 2 mM EDTA (pH 5.5) buffer at a flow rate 0.350 mL/min and detection by absorbance at 280 nm (A280).
Codon-optimized synthetic oligonucleotides encoding Lys to Ala mutants of C35STRX cloned into vector pD861 (Atum, Newark, Calif.) are expressed solubly in BL21 ΔrhaB E. coli under rhamnose induction (0.1% w/v, 26 deg C.) in APF-LB medium with 0.05% w/v glucose substrate at an O.D.600 of 0.8 in 2.8 L Fernbach shake flasks at NRC (Montreal Canada). Following cell pellet lysis (EmulsiFlex-C3, Avestin, Ottawa Canada) protein is purified from clarified extracts using anion exchange chromatography (FPLC, Akta) and 5 kDa ultrafiltration/diafiltration (UF/DF). […] Physical characterization: C35S(KA)TRX concentration is measured by BCA Protein assay (Pierce).

[2] = target: T1, insulin disulfides (heterodimeric insulin) (Homo sapiens, UniProt P01308); test: single-turnover insulin protein disulfide reduction assay (RP-HPLC of insulin heterodimer peak); assay type: biochemical; design: % reduction: concentration or dose not given beside the values; settings: for % reduction / insulin heterodimer peak (RP-HPLC): pH 8
T1 construct: fully disulfide-bonded heterodimeric insulin
T1 sequence (P01308 25-54 limits assumed): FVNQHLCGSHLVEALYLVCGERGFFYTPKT
T1 sequence (P01308 90-110 limits assumed): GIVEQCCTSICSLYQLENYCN
Method: Left side of FIG. 1—polyacrylamide gel electrophoresis of native human thioredoxin-1 (TRX). Lane 1: Molecular weight standards; Lane 2: Oxidized TRX; Lane 3: Oxidized TRX following reaction with dithiothreitol (DTT); Lane 4: Oxidized TRX following reaction with reduced glutathione (GSH); Lane 5: Oxidized TRX following reaction with GSH followed by DTT. Right side of FIG. 1—TRX was oxidized by exposure to ambient air for one week then incubated with either DTT or GSH at pH 8 for 1 hour followed by purification over a size exclusion column to remove unreacted free DTT or GSH after which the TRX was collected and used in a single-turnover insulin protein-disulfide reduction assay. Oxidized TRX (bottom line), TRX reduced with DTT (top line) or TRX reduced with GSH (middle line) were incubated with fully disulfide-bonded heterodimeric insulin at pH 8. After 30 min, 60 min and 120 minutes aliquots were taken and diluted with 0.1% TFA and 17 uM (final) iodoacetic acid and analyzed over RP-HPLC. Absorbance was monitored at 214 nm and the peak area of the insulin heterodimer fraction was determined at each time point to quantify TRX protein disulfide-reducing activity.
C35STRX was oxidized and Lys residues were conjugated to an azido-PEG linker. The conjugated material was then reduced and tested for molecular weight using SDS-PAGE (FIG. 5D) and MALDI-TOF (FIG. 5E) and activity assessed using a single-turnover insulin protein disulfide reduction assay. From the gel and MALDI-TOF results there is no free C35STRX; however, the conjugated material retained about 33% of its activity in the insulin assay as compared to unreacted reduced C35STRX. See FIGS. 5A-5E and their descriptions above.
Insulin Activity Assay with C35STRX and Azido-C35STRX: C35STRX OD280 was 11.8, corresponding to a concentration of 1.69 mM. C35STRX a OD280 was 15, corresponding to a concentration of 2.14 mM. Azido-C35STRX OD280 was 4.0, corresponding to a concentration of 0.57 mM. pH 8 Insulin stock: […] of Tris pH8 and 572 µL H2O and 25 µL of insulin (10 mg/mL) and 10 µL of 0.5 M EDTA. C35STRX stock was 0.5 mM. Azido-C35STRX stock was 0.5 mM concentration.
The reaction was stopped by addition of 10 µL of 1 M iodoacetic acid and 400 µL of 0.1% TFA. Samples were analyzed by RP-HPLC for changes in the insulin heterodimer peak.

[3] = tested on: extracellular airway mucus; test: immunohistochemical detection of thioredoxin after IT delivery to rat airways; assay type: in vivo; settings: intratracheal (IT) delivery, IHC
Source text: FIG. 4 Immunohistochemical detection of thioredoxin following IT delivery to rat airways via Penn-Century micro-sprayer. […] Animals were sacrificed 4 hr post-dose and excised lungs fixed, sectioned and analyzed by IHC for immunodetection of thioredoxin.
Conversion of the thioredoxin active site to a monothiol allows thioredoxin homologue protein to remain covalently attached to targeted disulfides once it has reacted. […] Reduced thioredoxin homologue protein can remain bound to extracellular airway mucus for at least 4 hours following intratracheal (IT) delivery to normal rats with normal mucus as visualized by immunohistochemical detection (brown staining; FIG. 4, Top) using anti-human thioredoxin antisera. […] While time points later than 4 hours were not included in this study, normalization of mucociliary transport in human airway mucus on epithelia for up to 24 hours is observed confirming similar residence time/mucin binding duration for mucoadhesive conjugates.
Conversion of the thioredoxin active site to a reduced Cys32 monothiol allows thioredoxin variants to remain covalently attached to targeted disulfides once reacted. […]

[4] = tested on: human airway mucus on epithelia; test: normalization of mucociliary transport in human airway mucus on epithelia; assay type: cell-based
[5] = tested on: rat; settings: in vivo
[6] = tested on: mice; settings: mouse, in vivo
[7] = tested on: human primary bronchial epithelia from CF and normal donors; assay type: cell-based
[8] = tested on: rats; test: acute aerosol toxicity (nebulizer); assay type: in vivo
[9] = tested on: target proteins; test: disulfide linkage to target proteins in vitro by HPLC and gel-shift; assay type: binding
[10] = literature values; cited from earlier work
[11] = tested on: porcine gastric mucin; test: mucin binding direct ELISA; settings: reduced biotinylated conjugate, various mucin concentrations
Method: To establish the feasibility of covalently binding conjugated monocysteinic active site Cys32-Ser35 thioredoxin (C35STRX) to mucins, conjugation of C35STRX via its N-terminal NH2 to a model payload (biotin) using EZ-Link™ Sulfo-NHS-SS-Biotin (ThermoFisher) was carried out. Dithiothreitol (DTT, 0.1 M) was used to generate active C35STRX conjugates by reduction of the C35STRX active site Cys. Following DTT removal (NAPS column, GE Healthcare), the mucin binding ability of reduced biotinylated 0.02 C35STRX was evaluated by direct ELISA using 96 well plates 0 (Costar 3370) coated with 100 μl of various concentrations of porcine gastric mucin (Sigma) in 100 mM Tris-HCl buffer (pH 9). 100 μL of biotinylated C35STRX in 50 mM Tris (pH 8) and 1 mM EDTA was then added and incubated for 2 hours, with washes performed between each step. 50 μL of avidin-horseradish peroxidase (HRP) was added and incubated for 30 min followed by 50 μL of tetramethylbenzidine (TMB) substrate. Reactions were stopped after 5 min with 100 μl 1N sulfuric acid. Absorbance at […] (Molecular Devices SpectraMax i3) was plotted against mucin concentration.

B1: Azido-C35STRX (conjugate, UniProt P10599 2-105, looked up, variant C35S)
Thioredoxin: VKQIESKTAFQEALDAAGDKLVVVDFSATWCGPSKMIKPFFHSLSEKYSNVIFLEVDVDDCQDVASECEVKCMPTFQFFKKGQKVGEFSGANKEKLEATINELV
modifications: azido group
- % reduced [1]: 106.6%
- % reduction ([2]; Table 3, 0 min): 0%
- insulin heterodimer peak (RP-HPLC) ([2]; Table 3, 0 min): 8959.8
- % reduction ([2]; Table 3, 90 min): 32.69%
- insulin heterodimer peak (RP-HPLC) ([2]; Table 3, 90 min): 6030.6
- % reduction ([2]; Table 4, 0 min): 0%
- insulin heterodimer peak (RP-HPLC) ([2]; Table 4, 0 min): 10213
- % reduction ([2]; Table 4, 90 min): 33.07%
- insulin heterodimer peak (RP-HPLC) ([2]; Table 4, 90 min): 6835
- activity retained in the insulin assay as compared to unreacted reduced C35STRX ([2]; up to 11 azido-PEG linkers on Lys): about 33%

B2: C35STRX: monocysteinic active site Cys32-Ser35 variant of human thioredoxin-1, mucus-targeting scaffold (protein)
chain: MVKQIESKTAFQEALDAAGDKLVVVDFSATWCGPSKMIKPFFHSLSEKYSNVIFLEVDVDDCQDVASECEVKCMPTFQFFKKGQKVGEFSGANKEKLEATINELV
- % reduced [1]: 109.4%
- % reduction ([2]; Table 3, 0 min): 0%
- insulin heterodimer peak (RP-HPLC) ([2]; Table 3, 0 min): 8515.4
- % reduction ([2]; Table 3, 90 min): 99.40%
- insulin heterodimer peak (RP-HPLC) ([2]; Table 3, 90 min): 50.2
- % reduction ([2]; Table 4, 0 min): 0%
- insulin heterodimer peak (RP-HPLC) ([2]; Table 4, 0 min): 10602
- % reduction ([2]; Table 4, 90 min): 97.70%
- insulin heterodimer peak (RP-HPLC) ([2]; Table 4, 90 min): 243.2
- time remaining bound to extracellular airway mucus ([3]; normal rats): at least 4 hours
- duration of normalization of mucociliary transport [4]: up to 24 hours
- adverse inflammatory effects in lavage fluid [5]: No adverse inflammatory effects
- adverse inflammatory effects in lavage fluid [6]: No adverse inflammatory effects
- adverse inflammatory effects in vitro [7]: No adverse inflammatory effects
- toxic effects in normal animals treated by aerosol ([8]; normal animals, aerosol, high dose levels): lack of observed toxic effects
- local or systemic toxicity, histopathology ([8]; rats dosed acutely, aerosol via nebulizer, highest delivered concentration 40 mg/kg): No local or systemic toxicity or histopathological anomalies
- disulfide linkage to target proteins [9]: stable disulfide linkages to target proteins

B3: TRX: endogenously secreted human epithelial protein thioredoxin-1, small (12 kDa) redox enzyme (protein)
chain: MVKQIESKTAFQEALDAAGDKLVVVDFSATWCGPCKMIKPFFHSLSEKYSNVIFLEVDVDDCQDVASECEVKCMPTFQFFKKGQKVGEFSGANKEKLEATINELV
- pKa of catalytic Cys thiol [10]: 6.2

B4: biotinylated C35STRX (conjugate)
chain: MVKQIESKTAFQEALDAAGDKLVVVDFSATWCGPSKMIKPFFHSLSEKYSNVIFLEVDVDDCQDVASECEVKCMPTFQFFKKGQKVGEFSGANKEKLEATINELV
- mucin binding [11]: bind mucin in a dose-dependent fashion; also recorded: maintained full mucin binding activity with linear kinetics

B5: Oxidized (inactive) C35STRX: oxidized, inactive form of C35STRX used as control (protein)
chain: MVKQIESKTAFQEALDAAGDKLVVVDFSATWCGPSKMIKPFFHSLSEKYSNVIFLEVDVDDCQDVASECEVKCMPTFQFFKKGQKVGEFSGANKEKLEATINELV
- binding to mucus or the epithelial surface ([3]; rats, 4 hr post-dose): did not bind mucus or the epithelial surface
